Reference: paper PMC8764033, “Single-molecule analysis of specificity and multivalency in binding of short linear substrate motifs to the APC/C” (Nature Communications, 2022)

B1: securin: separase inhibitor securin, APC/C substrate protein (protein, UniProt P40316 1-373, looked up)
Securin: MMPANEDKENNIVYTGNESSGINFPQTPAHLLKRSHSNILKPPVRLDQLKRDANSNNGNTLKYIQGGKEVSPTKRLHTHAQQQGRLPLAAKDNNRSKSFIFPETSNQSKDADLPQLQNTLSIRKNDQLRKLSQISRSRSRANHNDLLSNSRKLQKYGSVLGYNALPKMKSLVLKDLADSGKNEESSDDDEGNEDSESKLGKKLQSALLKQDSSDGENELNGGLGLFNEQGGLQQLIKNSTKNEQKTKNDKSDKTDDYDIEIAPQRQEPLPYVPEGYSPFQQDDIEKLKTFNSPYKLDLEDEDDTPDKVDLLPLEQIDEEGEKDETECITRNQEEGAALPLLSKNFKEVAAVPTMELVYSEEGLDPEELEDLVT
B2: Cdh1: APC/C activator subunit (protein, UniProt P53197 1-566, looked up)
APC/C activator protein CDH1: MSTNLNPFMNNTPSSSPLKGSESKRVSKRPISSSSSASLLSSPSRRSRPSTVYGDRYIPSRTDIDFNSIVSISSMASVPALNPSSTEDQVEYQKERQAHETYNTLLKNELFGEMLSKDTVGSESSIDRIKNTRPSTRGNVHAENTTRHGYELERVSTPPPEAAGLEEFSPHSTPVTPRRLFTSQQDEITRPSSNSVRGASLLTYQQRKGRRLSAASLLQSQFFDSMSPVRPDSKQLLLSPGKQFRQIAKVPYRVLDAPSLADDFYYSLIDWSSTDVLAVALGKSIFLTDNNTGDVVHLCDTENEYTSLSWIGAGSHLAVGQANGLVEIYDVMKRKCIRTLSGHIDRVACLSWNNHVLTSGSRDHRILHRDVRMPDPFFETIESHTQEVCGLKWNVADNKLASGGNDNVVHVYEGTSKSPILTFDEHKAAVKAMAWSPHKRGVLATGGGTADRRLKIWNVNTSIKMSDIDSGSQICNMVWSKNTNELVTSHGYSKYNLTLWDCNSMDPIAILKGHSFRVLHLTLSNDGTTVVSGAGDETLRYWKLFDKPKAKVQPNSLIFDAFNQIR
B3: Clb5: yeast S-phase cyclin, APC/C substrate protein (protein, UniProt P30283 1-435, looked up)
S-phase entry cyclin-5: MGENHDHEQSIKRNSMIYNENERQLCNSNLKILQNKRALSKNDSSSKQQVQDSKPRRALTDVPVNNNPLSQNKRIVAGSKAAKVRREENIRPIVSAVQKRQIYNDRTAAEQEEEEEEEGEDDDAASIVNKKRRIDAEGVSEIVGWQDLDYVEKDDTAMVAEYSAEIFAFLYRRELETLPSHNYLLDKTSKYYLRPSMRTILVDWLVEVHEKFQCYPETLFLSINLMDRFLAKNKVTMNKLQLLAVTSLFIAAKFEEVNLPKLAEYAYITDGAASKNDIKNAEMFMLTSLEFNIGWPNPLNFLRRISKADDYDPVNRNIGKFILEYAYCCHQFIHLPPSTVSAMAMYIARRMTNRNKNELWNGTLQHYSGGIDPIHDEAFQSLCIDLVKDIASSKTHLDSLILKYKKPRYGSVYFQTFKWCTSEMHSNFQNLFNLK

Assays:
[1] = Aggregation / background fluorescence in SMOR assay; format: physicochemical
Method: To capture dynamic protein–protein interactions, dye-labeled substrate diluted in buffer C + BSA was added to the chamber containing immobilized proteins. Interactions were imaged by TIRF microscopy as described below. For optimal signal-to-noise ratio, peptide concentration was no greater than 1 nM. Protein substrates included Hsl1 aa 667–872 and a C-terminal HaloTag followed by a TAP tag, and were produced by translation in rabbit reticulocyte lysates using TnT Quick Coupled Transcription/Translation System (Promega) (see Supplementary Table 5 for plasmids). Protein was purified with magnetic IgG beads and labeled on the bead with JF549 or JF646 dye so that unbound dye could be washed away. Purified dye-labeled protein was then cleaved from the beads using TEV protease. Before adding substrate to the reaction chamber, oxygen scavenging reagents were added (10 nM protocatechuate-3,4-dioxygenase, 2.5 mM protocatechuic acid, and 1 mM Trolox)[41]. A detailed description of the SMOR analysis pipeline is found in Supplementary Note 1.

[2] = tested on: APC/C; details: APC/C^Cdc20 vs APC/C^Cdh1; cited from earlier work
Source text: We find that the yeast securin ...

[3] = tested on: APC/C; details: purified yeast components, 30 min; 20 (Mizrak & Morgan, 2019); cited from earlier work
Source text: It is therefore unlikely that activator dissociation is occurring during our measurements of substrate dissociation from APC/C^Cdh1 or APC/C^Cdc20. || page 6: Cdh1 in Supplementary Figure 6. 2. Fig. 1b. List human peptide sequences used in this study. Now added to Supplementary Figure 6. 3. APC/C-Cdh1 interaction stability and life-time. The SMOR assay is dependent on a stable APC/C-Cdh1 interaction, longer than the dwell times of APC/C-activator-substrate complexes. Can the authors measure the dwell time of APC/C bound to activator? Excellent point.

Molecule	aggregation / background (in words) [1]	processivity of ubiquitylation (in words) [2]	dissociation from the APC/C (in words) [3]
B1	tendency to aggregate and create excessive background fluorescence	more processive than that with APC/C^Cdh1	
B2			dissociation from the APC/C was not detected in 30 min
B3		more processive than that with APC/C^Cdh1	
